Target: TcdB4.2 (full-length recombinant toxin B variant 4.2) (Clostridioides difficile)
Test: BLI; as a1, KD calculated with the BLItz system software from the indicated concentrations (Supplementary Fig. 7); KD called estimated
Conditions: both partners purified

B1: mTFPI-Fc (Fc-tagged mouse TFPI) (Fc fusion)
chain: LSEEADDTDSELGSMKPLHTFCAMKADDGPCKAMIRSYFFNMYTHQCEEFIYGGCEGNENRFDTLEECKKTCIPGYEKTAVKAASGAERPDFCFLEEDPGLCRGYMKRYLYNNQTKQCERFVYGGCLGNRNNFETLDECKKICENPVHSPSPVNEVQMSDYVTDGNTVTDRSTVNNIVVPQSPKVPRRR
notes: source: Expi293F, transfected, purified from culture medium as His-tagged protein
Work on B1 yielded a Kd of about 63 nM.

Reference: PMC9646764 (Nature Communications, 2022)
